Laboratory results as given in publication PMC2756588.

T1: Abp1, P15891
T1 sequence (P15891 535-592, looked up): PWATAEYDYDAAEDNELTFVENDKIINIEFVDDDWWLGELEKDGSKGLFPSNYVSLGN

T2: Lsb3, P43603
T2 sequence (P43603 385-451, looked up): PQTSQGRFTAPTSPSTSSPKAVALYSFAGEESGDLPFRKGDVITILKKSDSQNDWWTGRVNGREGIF

T3: Hof1, Q05080
T3 sequence (Q05080 590-669, looked up): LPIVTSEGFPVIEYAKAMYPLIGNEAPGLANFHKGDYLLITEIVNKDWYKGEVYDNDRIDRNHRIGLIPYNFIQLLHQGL

T4: Cdc25, P04821
T4 sequence (P04821 50-136, looked up): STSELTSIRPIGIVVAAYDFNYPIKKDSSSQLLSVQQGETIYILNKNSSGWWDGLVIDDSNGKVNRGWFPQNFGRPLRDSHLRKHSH

T5: Hse1, P38753
T5 sequence (P38753 208-285, looked up): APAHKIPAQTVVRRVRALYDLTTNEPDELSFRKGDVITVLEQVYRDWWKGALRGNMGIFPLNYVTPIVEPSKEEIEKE

T6: Boi1, P38041
T6 sequence (P38041 1-86, looked up): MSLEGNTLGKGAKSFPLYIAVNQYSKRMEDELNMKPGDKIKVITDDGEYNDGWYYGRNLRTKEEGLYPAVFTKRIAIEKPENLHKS

T7: Lsb4, P32793
T7 sequence (P32793 402-468, looked up): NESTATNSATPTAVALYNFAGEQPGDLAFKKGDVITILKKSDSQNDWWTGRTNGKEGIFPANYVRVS

T8: Myo5, Q04439
T8 sequence (Q04439 1072-1160, looked up): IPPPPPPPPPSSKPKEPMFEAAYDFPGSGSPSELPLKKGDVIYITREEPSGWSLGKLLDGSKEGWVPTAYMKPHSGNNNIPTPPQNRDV

T9: Bzz1-2, P38822
T9 sequence (P38822 568-633, looked up): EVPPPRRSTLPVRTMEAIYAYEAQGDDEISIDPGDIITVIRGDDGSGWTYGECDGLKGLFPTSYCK

T10: Lsb1, P53281
T10 sequence (P53281 45-122, looked up): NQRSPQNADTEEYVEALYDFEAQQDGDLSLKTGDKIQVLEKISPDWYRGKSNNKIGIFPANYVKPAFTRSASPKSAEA

T11: Bzz1-1, P38822
T11 sequence (P38822 478-572, looked up): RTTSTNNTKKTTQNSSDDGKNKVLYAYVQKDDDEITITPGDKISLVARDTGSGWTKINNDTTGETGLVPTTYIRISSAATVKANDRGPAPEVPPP

T12: Nbp2, Q12163
T12 sequence (Q12163 103-180, looked up): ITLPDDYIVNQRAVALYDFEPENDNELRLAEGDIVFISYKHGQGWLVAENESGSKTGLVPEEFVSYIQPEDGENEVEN

T13: Bud14, P27637
T13 sequence (P27637 247-328, looked up): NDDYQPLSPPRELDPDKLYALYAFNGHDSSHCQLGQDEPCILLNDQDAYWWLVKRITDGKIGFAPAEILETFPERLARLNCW

T14: Fus1, P11710
T14 sequence (P11710 432-512, looked up): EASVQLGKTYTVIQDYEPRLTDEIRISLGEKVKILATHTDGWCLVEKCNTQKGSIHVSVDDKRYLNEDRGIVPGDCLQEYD

T15: Cyk3, Q07533
T15 sequence (Q07533 1-83, looked up): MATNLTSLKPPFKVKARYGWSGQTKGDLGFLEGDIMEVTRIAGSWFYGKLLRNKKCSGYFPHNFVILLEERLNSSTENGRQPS

T16: Pin3, Q06449
T16 sequence (Q06449 53-122, looked up): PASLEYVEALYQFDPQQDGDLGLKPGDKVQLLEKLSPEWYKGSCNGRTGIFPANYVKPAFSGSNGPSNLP

T17: Pex13, P80667
T17 sequence (P80667 295-386, looked up): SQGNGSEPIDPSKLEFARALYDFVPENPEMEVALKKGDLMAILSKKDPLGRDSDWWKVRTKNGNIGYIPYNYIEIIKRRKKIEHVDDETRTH

T18: Sla1-2, P32790
T18 sequence (P32790 60-140, looked up): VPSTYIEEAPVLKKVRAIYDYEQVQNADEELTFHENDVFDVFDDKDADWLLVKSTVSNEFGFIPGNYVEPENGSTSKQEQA

T19: Boi2, P39969
T19 sequence (P39969 32-116, looked up): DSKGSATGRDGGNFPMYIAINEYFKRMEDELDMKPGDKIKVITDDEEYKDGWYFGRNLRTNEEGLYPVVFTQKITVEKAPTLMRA

T20: Sla1-3, P32790
T20 sequence (P32790 344-424, looked up): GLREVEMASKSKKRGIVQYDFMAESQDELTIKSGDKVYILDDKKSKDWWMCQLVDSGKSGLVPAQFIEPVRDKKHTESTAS

T21: Bbc1, P47068
T21 sequence (P47068 1-78, looked up): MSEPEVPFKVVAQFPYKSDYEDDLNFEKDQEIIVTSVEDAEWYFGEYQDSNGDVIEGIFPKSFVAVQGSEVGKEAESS

B1: unnamed (peptide)
chain: RHLKLVPSTPMDIPW
B2: unnamed (peptide)
chain: IFLRISINFPLNYPN
B3: unnamed (peptide)
chain: RTRRRPPPPPIPSTQ
B4: unnamed (peptide)
chain: SPLGAPPPPPHKDHL
B5: unnamed (peptide)
chain: TPEIPPPLPPKIMVH
B6: unnamed (peptide)
chain: GDHPKGPPPPPPPPD

Tests used:
Test in all cases: SPOT array
Abp1, P15891 = target: T1, Abp1, P15891; conditions: median of control spots 935
Lsb3, P43603 = target: T2, Lsb3, P43603; conditions: median of control spots 406
Hof1, Q05080 = target: T3, Hof1, Q05080; conditions: median of control spots 4086
Cdc25, P04821 = target: T4, Cdc25, P04821; conditions: median of control spots 969
Hse1, P38753 = target: T5, Hse1, P38753; conditions: median of control spots 1727
Boi1, P38041 = target: T6, Boi1, P38041; conditions: median of control spots 1162
Lsb4, P32793 = target: T7, Lsb4, P32793; conditions: median of control spots 397
Myo5, Q04439 = target: T8, Myo5, Q04439; conditions: median of control spots 471
Bzz1-2, P38822 = target: T9, Bzz1-2, P38822; conditions: median of control spots 4538
Lsb1, P53281 = target: T10, Lsb1, P53281; conditions: median of control spots 388
Sho1, P40073 = conditions: median of control spots 1148
Sequence of Sho1, P40073 (P40073 287-367): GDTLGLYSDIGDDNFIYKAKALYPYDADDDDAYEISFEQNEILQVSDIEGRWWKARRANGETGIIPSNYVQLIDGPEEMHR

Bem1-2, P29366 = conditions: median of control spots 4347
Sequence of Bem1-2, P29366 (P29366 139-227): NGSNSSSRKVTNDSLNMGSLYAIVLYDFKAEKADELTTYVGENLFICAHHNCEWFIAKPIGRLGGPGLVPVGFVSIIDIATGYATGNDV

Bzz1-1, P38822 = target: T11, Bzz1-1, P38822; conditions: median of control spots 4446
Nbp2, Q12163 = target: T12, Nbp2, Q12163; conditions: median of control spots 357
Rvs167, P39743 = conditions: median of control spots 2707
Sequence of Rvs167, P39743 (P39743 419-482): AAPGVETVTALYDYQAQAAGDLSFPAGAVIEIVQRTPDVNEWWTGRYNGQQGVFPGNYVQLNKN

Bud14, P27637 = target: T13, Bud14, P27637; conditions: median of control spots 956
Fus1, P11710 = target: T14, Fus1, P11710; conditions: median of control spots 1200
Cyk3, Q07533 = target: T15, Cyk3, Q07533; conditions: median of control spots 1451
Bem1-1, P29366 = conditions: median of control spots 4282
Sequence of Bem1-1, P29366 (P29366 55-141): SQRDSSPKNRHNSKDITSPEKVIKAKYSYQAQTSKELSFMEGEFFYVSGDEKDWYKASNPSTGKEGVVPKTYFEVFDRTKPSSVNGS

GST = conditions: median of control spots 978
Pin3, Q06449 = target: T16, Pin3, Q06449; conditions: median of control spots 2171
Pex13, P80667 = target: T17, Pex13, P80667; conditions: median of control spots 1341
Myo3, P36006 = conditions: median of control spots 468
Sla1-2, P32790 = target: T18, Sla1-2, P32790; conditions: median of control spots 712
Boi2, P39969 = target: T19, Boi2, P39969; conditions: median of control spots 1161
Sla1-3, P32790 = target: T20, Sla1-3, P32790; conditions: median of control spots 5475
Bbc1, P47068 = target: T21, Bbc1, P47068; conditions: median of control spots 796

Binder	SPOT intensity (Abp1, P15891)	SPOT intensity (Lsb3, P43603)	SPOT intensity (Hof1, Q05080)	SPOT intensity (Cdc25, P04821)	SPOT intensity (Hse1, P38753)	SPOT intensity (Boi1, P38041)	SPOT intensity (Lsb4, P32793)	SPOT intensity (Myo5, Q04439)	SPOT intensity (Bzz1-2, P38822)	SPOT intensity (Lsb1, P53281)	SPOT intensity (Sho1, P40073)	SPOT intensity (Bem1-2, P29366)	SPOT intensity (Bzz1-1, P38822)	SPOT intensity (Nbp2, Q12163)	SPOT intensity (Rvs167, P39743)	SPOT intensity (Bud14, P27637)	SPOT intensity (Fus1, P11710)	SPOT intensity (Cyk3, Q07533)	SPOT intensity (Bem1-1, P29366)	SPOT intensity (GST)	other results
B1	37	0	59	14	134	0	6	10	411	14	72	90	6	3	43	8	1430	0	189	0	SPOT intensity (Pin3, Q06449): 329; SPOT intensity (Pex13, P80667): 99; SPOT intensity (Myo3, P36006): 81; SPOT intensity (Sla1-2, P32790): 3; SPOT intensity (Boi2, P39969): 0; SPOT intensity (Sla1-3, P32790): 290; SPOT intensity (Bbc1, P47068): 1
B2	212	10	15	91	143	24	14	15	70	71	134	3	6	74	1	18	655	5	8	0	SPOT intensity (Pin3, Q06449): 101; SPOT intensity (Pex13, P80667): 76; SPOT intensity (Myo3, P36006): 71; SPOT intensity (Sla1-2, P32790): 12; SPOT intensity (Boi2, P39969): 3; SPOT intensity (Sla1-3, P32790): 199; SPOT intensity (Bbc1, P47068): 192
B3	212	56	8	3	63	1	69	243	2960	800	83	79	1470	107	99	16	13	3	0	1	SPOT intensity (Pin3, Q06449): 10; SPOT intensity (Pex13, P80667): 21; SPOT intensity (Myo3, P36006): 487; SPOT intensity (Sla1-2, P32790): 3; SPOT intensity (Boi2, P39969): 0; SPOT intensity (Sla1-3, P32790): 1980; SPOT intensity (Bbc1, P47068): 434
B4	0	0	0	0	0	1	0	81	0	0	1	0	0	0	2	0	0	0	0	1	SPOT intensity (Pin3, Q06449): 0; SPOT intensity (Pex13, P80667): 0; SPOT intensity (Myo3, P36006): 327; SPOT intensity (Sla1-2, P32790): 0; SPOT intensity (Boi2, P39969): 0; SPOT intensity (Sla1-3, P32790): 0; SPOT intensity (Bbc1, P47068): 0
B5	2	96	2240	2	1540	0	42	87	0	0	52	0	0	0	0	0	0	0	0	0	SPOT intensity (Pin3, Q06449): 20; SPOT intensity (Pex13, P80667): 321; SPOT intensity (Myo3, P36006): 304; SPOT intensity (Sla1-2, P32790): 0; SPOT intensity (Boi2, P39969): 0; SPOT intensity (Sla1-3, P32790): 0; SPOT intensity (Bbc1, P47068): 0
B6	0	0	0	0	0	0	0	262	0	0	0	0	331	1	0	1	0	0	0	0	SPOT intensity (Pin3, Q06449): 0; SPOT intensity (Pex13, P80667): 0; SPOT intensity (Myo3, P36006): 456; SPOT intensity (Sla1-2, P32790): 0; SPOT intensity (Boi2, P39969): 0; SPOT intensity (Sla1-3, P32790): 0; SPOT intensity (Bbc1, P47068): 0
